± gives the standard deviation.
Assay: protein stability index of a GFP-peptide fusion (GPS, HEK-293T) (PSI 1-6); higher = more stable
Conditions: c terminus: a fixed tail appended
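Also: 24-mer peptide tiles fused after GFP, lentivirally expressed, FACS-sorted into six equal bins by GFP/DsRed ratio, decoded by Illumina sequencing, PSI is the read-weighted mean bin number.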

Sequence | protein stability index (treatment: DMSO) | protein stability index (treatment: MLN4924 1 uM, 8 h)
QNPGKFDELDMSPGDPKWLDVIER [TBC1D10A] | 4.27 ± 0.081 | 4.49 ± 0.28
LDLLSELYQKQPKIGYHLLYYLRA [INTS3] | 3.21 ± 0.65 | 2.74 ± 0.53
REAATKHSKASLPTGEGSISHEEQ [CHCHD6] | 5.3 ± 0.24 | 5.34 ± 0.3
ATIENNRVILEIDNARLAVDDFRL [KRT13] | 2.15 ± 0.16 | 2.31 ± 0.35
QNFKNRESYPEDTVFYIPEDHKPG [DLC1] | 4.63 ± 0.087 | 4.53 ± 0.44
FRENGRNCKRERDARVKRKLRGPE [TBX6] | 3.92 ± 0.3 | 4.05 ± 0.22
NFIREQDLYALKSVKIPVRNHGIL [LYSMD4] | 2.27 ± 0.076 | 2.35 ± 0.37
ASPMSADRVVAFMDHIRIFQEQVE [NR2F2] | 2.8 ± 0.44 | 3.1 ± 0.29
TLAQFPETLLGDPEKRTQYFDPLR [KCNA4] | 3.5 ± 0.31 | 3.6 ± 0.36
EERKNEMTQVITRTQEEKLEHVRA [TRIM55] | 5.3 ± 0.21 | 5.54 ± 0.21
SSQERKFMEERELLGQDEETAMRK [RSPH3] | 5.47 ± 0.38 | 5.51 ± 0.3
IRHNLSLNKCFIKVPREKDEPGKG [FOXJ1] | 3.78 ± 0.3 | 3.9 ± 0.2
FHALVREIRRKEKEAVLAMEKKSK [RIT1] | 2.52 ± 0.6 | 3.07 ± 0.57
LDEQNKRPCRKFLLTGQCDFGSNC [ZMAT5] | 3.34 ± 0.42 | 3.323 ± 0.006
VVTRVVTGVYPRCLHASQWPVCAA [BRF1] | 2.54 ± 0.51 | 2.75 ± 0.23
SGPAASEHSHRSHHSLASSLRSHH [DVL3] | 3.92 ± 0.16 | 3.91 ± 0.33
INNGDFEAYTKICDPGLTAFEPEA [CAMK2D] | 4.08 ± 0.41 | 4.36 ± 0.18
LSEGCRAELAETIVYARVLALHPE [CCDC3] | 2.92 ± 1.4 | 1.83 ± 0.38
RGVDVSLQGKDAWLPLHYAAWQGH [RIPK4] | 2.58 ± 0.42 | 2.45 ± 0.29
LLGTSGLKRRFSRLENRYEALAKQ [DAPK3] | 3.04 ± 0.31 | 3.06 ± 0.27
LRVSPAEQPRLEFLMRKCGWFVRE [FBXO33] | 1.97 ± 0.12 | 2.08 ± 0.38
PLRADHMVKEPVEDTDPSTLSFNM [EDARADD] | 5.1 ± 0.083 | 4.86 ± 0.46
TEPSGRVAKKTPTKRSTLIISGVS [C2CD2L] | 3.76 ± 0.27 | 3.92 ± 0.34

Sequence | protein stability index (treatment: DMSO) | protein stability index (treatment: MLN4924 1 uM, 8 h)
YSGAYGASVSDEELKRRVAEELAL [CHCHD3] | 3.11 ± 0.52 | 3.53 ± 1.1
SEKAANDDHSVRVAREDVRESCPP [CPXM2] | 5.49 ± 0.22 | 5.44 ± 0.061
GPSRSRHRRRSRERGPYRTRKHAH [CLK3] | 4.92 ± 0.24 | 4.8 ± 0.38
IMTVKEDQFSALGLDPCLLEDELD [SLC6A17] | 4.45 ± 0.33 | 4.46 ± 0.3
PFFVLNSDVICDFPFQAMVQFHRH [GMPPB] | 2.4 ± 0.67 | 2.34 ± 0.29
KKVLKKMLKFLAKGEVPKGSCEDE [ATE1] | 2.11 ± 0.25 | 2.25 ± 0.47
TPPEEQQEAEEPKARVLRSKSLCH [CDC25B] | 5.37 ± 0.26 | 5.37 ± 0.24
RNLLVENIIDIYKQESTRPEKKSD [TRIM55] | 4.42 ± 0.51 | 4.73 ± 0.11
TEGPSLLNQKGTAVETEGSGSRHP [SLC2A12] | 5.43 ± 0.21 | 5.36 ± 0.43
VSNTPLRTVDGSPMMKAAMYSVEI [PALM] | 2.27 ± 0.4 | 2.42 ± 0.17
VEASCSVCLEYLKEPVIIECGHNF [TRIM39] | 2.07 ± 0.39 | 2.25 ± 0.21
VSTRLTVLREDQIPRGFPTIDMGP [PTPRD] | 2.33 ± 0.47 | 2.53 ± 0.18
SSSQKEESPSTLQVLPDSESLPRS [MAGEA10] | 5.36 ± 0.23 | 5.4 ± 0.16
LYAVGGQDGVSCLNIVERYDPKEN [KLHL20] | 3.89 ± 0.31 | 3.96 ± 0.27
DRSDYFAAWGARVFSFGKHYWELD [TRIM43] | 2.14 ± 0.44 | 2.15 ± 0.57
IGRAAGTGFTVNVAWNGPRMGDAD [HDAC6] | 3.02 ± 0.28 | 3.15 ± 0.32
SCQEVLRKGCLRFQLPERGSRLCL [DFFB] | 2.27 ± 0.48 | 2.4 ± 0.29
TWGQIKKTTQEAEKLLERQGQAKT [CDK11A] | 4.98 ± 0.11 | 5.01 ± 0.072
FRQFGYQDSPGPREAVSQLRELCR [ZNF24] | 3.37 ± 0.17 | 3.38 ± 0.15
RRLLEGEDAHLTQYKKEPVTTRQV [KRT17] | 4.56 ± 0.25 | 4.66 ± 0.18
EDLTPEDDMPIGRNVLELNDVRQS [PTPRD] | 5.13 ± 0.3 | 5.19 ± 0.14
AFTMEQVRTLEGVFQHHQYLSPLE [VENTX] | 2.83 ± 0.16 | 2.28 ± 0.23
RSLLLKYARTPTLDPDTMHARLRL [TRIM14] | 2.45 ± 0.35 | 2.37 ± 0.44

Sequence | protein stability index (treatment: DMSO) | protein stability index (treatment: MLN4924 1 uM, 8 h)
SALTDRTSRAPSTYTYTSRPRALP [RSPH3] | 4.01 ± 0.26 | 3.7 ± 0.29
EARKYASNLLKAGFIRHTVNKITF [DVL3] | 2.31 ± 0.48 | 2.16 ± 0.18
HSEKMAQYLEEERHMREENLRLQR [CCDC6] | 4.91 ± 0.07 | 4.56 ± 0.25
AAGIGKLSTADGKAFADPEVLRRL [ANKRD17] | 4.2 ± 0.15 | 4.19 ± 0.41
EKLKEKLKMKEREEAWVKIENLAK [PPP2R5C] | 2.54 ± 0.6 | 2.48 ± 0.39
RRSFLIEHQRSHTGERPHQCIECG [ZSCAN9] | 3.3 ± 0.39 | 3.8 ± 0.35
ERRHREEKERRKKQQWEIMHKHNE [RSPH3] | 4.8 ± 0.23 | 4.65 ± 0.28
ECGKRFLRSSDLYRHQRLHTGERP [ZNF449] | 3.08 ± 0.26 | 3.22 ± 0.24
ETAEEVSARIVQVVTAEAVAVLKG [MAP2] | 3.36 ± 0.27 | 3.45 ± 0.34
TRGRGGLLRDHIPRGKEELESLGG [MOG] | 4.72 ± 0.081 | 4.95 ± 0.19
DHGVPEHPTPFLAFLRRVKTCNPP [PTPRD] | 3.16 ± 0.042 | 3.16 ± 0.25
FPRKSELTEHQRIHTGIKPHQCSE [ZNF649] | 3.92 ± 0.23 | 4.24 ± 0.18
TMPLYLEDDIRPDIKDDIYDPTYK [SCD] | 4.46 ± 0.3 | 4.68 ± 0.17
SSSEQLQCCQTEIIELRRTVNALE [KRT36] | 3.58 ± 0.12 | 3.34 ± 0.38
RAIMAHMTVEEIYKDRQKFSEQVF [FLOT1] | 2.52 ± 0.32 | 2.74 ± 0.3
NGVLLCFYSQEWYARQHCPLKNPT [SOAT1] | 2.81 ± 0.31 | 2.6 ± 0.57
ERLLCPSLLAGTADGSLRMDDPKG [M1AP] | 4.74 ± 0.3 | 4.71 ± 0.3
PHSDQRLRPQRTKQYVLLSILLCL [TMEM106C] | 2.34 ± 0.48 | 2.11 ± 0.17
NPFAKGFRENGRNCKRERDARVKR [TBX6] | 4.1 ± 0.24 | 4.09 ± 0.36
VDSLESHIPSQEVPGTQVGQGGKL [ZNF263] | 5.33 ± 0.2 | 5.16 ± 0.22
LDMSQNVSLVTAELSKDAQASAAP [SLC29A1] | 5.16 ± 0.12 | 5.08 ± 0.095
RNQGNFSVVGTVLAATQAEKAVAN [ZC2HC1C] | 4.28 ± 0.15 | 4.24 ± 0.42
DHYQRVKREREKEDIALNKHRSRR [RHOBTB1] | 4.23 ± 0.25 | 4.38 ± 0.21

Sequence | protein stability index (treatment: DMSO) | protein stability index (treatment: MLN4924 1 uM, 8 h)
LGLTNQSRRYNRKEPAEFNGDGAF [ZNF649] | 3.96 ± 0.29 | 4.26 ± 0.37
EIAPQHRRGLLVSLNELMIVIGIL [SLC2A12] | 2.07 ± 0.11 | 2.33 ± 0.16
LHVAAHYGRDSFVRLLLEFKAEVD [ASB7] | 2.15 ± 0.14 | 2.15 ± 0.37
GRLAMDEIFQKPFQTLMFLVRDWS [ATL3] | 2.25 ± 0.55 | 2.09 ± 0.21
VIFGVELPGNEEFQVVKDAVLDCL [TENT5D] | 2.23 ± 0.41 | 2.25 ± 0.24
CKIRIQRQLEIMGKEVSGDQIEDM [STX11] | 4.01 ± 0.2 | 3.94 ± 0.12
VNYLPQNMTQDEFKSLFGSIGDIE [ELAVL3] | 3.8 ± 0.11 | 4 ± 0.27
VGEKNCTGPPCDRQWTVSDWGPCS [ADAMTSL2] | 3.53 ± 0.3 | 3.32 ± 0.66
PAVTPDPWGVQGGQESEVPYKREE [PKD2L1] | 5.24 ± 0.33 | 5.49 ± 0.16
ENCERREAFWAEWKDLTLSTRPEE [TCAP] | 4.53 ± 0.097 | 4.68 ± 0.2
DEGASAGQGPKPEADSQEQGHPQT [GAGE1] | 5.71 ± 0.1 | 5.48 ± 0.37
PTLKKCEDVARPTQRLWDFTQSGP [GALNT9] | 3.69 ± 0.24 | 4 ± 0.17
RDRDGRITVAELREAVPALLGEPL [CABP4] | 3.78 ± 0.23 | 3.95 ± 0.35
EWPEYFMAVAFLSAQRSKDPNSQV [DCTD] | 2.35 ± 0.26 | 2.06 ± 0.48
TWEHSNLEVNKPKNRYANVIAYDH [PTPRD] | 2.98 ± 0.27 | 3.02 ± 0.32
QAFLDELESSDLPVALLLAQHKDR [MNAT1] | 3.53 ± 0.13 | 3.49 ± 0.21
KESAQCVGDEFLNCKLATRAKDFL [SNX8] | 3.32 ± 0.2 | 3.21 ± 0.36
SLHDHDGSSGASDQDTLAPLPHPG [DVL3] | 5.33 ± 0.25 | 5.19 ± 0.33
DGGLLSGNEKITMQNLNDRLASYL [KRT15] | 3.12 ± 0.16 | 3.09 ± 0.2
TVEKDKVTGETRVLSSTTLLPRQP [PALM] | 4.86 ± 0.23 | 4.87 ± 0.084

From the supplement of paper PMC10567573
